experiment: soluble on expression in E. coli; label from the status in PepcDB or PDB records

Soluble on expression in E. coli, not soluble:
MGSDKIHHHHHHMLTDHRCTKYTDCSSCSFYQRDIFKYRLYPKGYVIPQTRCMQNMVFFLVKGEIWLNSEEHPDTTFRGGQFVLQPIGSKVECKVLDYTECIIYLFERPQNICDNRFNKGISIVENERQQPIVMTMVPPIQLFIEGMKLYLNDDLRCSGLMQAKRSEMVYLLNCYYPIKELAAFYAPIYRYSHSFQYFVMQNYQKAKDVETFAQLGGYSVPTFRRIFKDTFGEPAYQWMLKRKCQDIHNDLIMTELSISEICYKYGFESLSNFSHFCRANFGQSPRSVRSLKDENT, MGSDKIHHHHHHMLTGQRRRESRSRQGSGFPTISYPRIRDGANRPRTRMSPLPEAVPFFSQWETPDMTLAVLADGAEVALRRDLLWQGSGAESLDEYAVWAANICGMACLKMILATRGEIVPTIELARRCTRYGGYVVNEGSIKGLIYAPFVSFVQAEFSLEAQVMTNVATSDIPAILRQSRFFIASVSSSIRWPEGEPPSKGGHLVLVTAASDDGFRFHNPSGHTSVTQANAVLAPADFDRFFANRGIAITI, MGSDKIHHHHHHMLTRLEVNCFKNLLGFSVNFGPFNCVAGLNGVGKSNIFDSIKFLSLLADKSIVEAALEVRESDSTDPLDIFWTNGEFRSERLSLAVEMIVPVDVIDDFGRRAKATSTFLRYEVELARDDGERESGSLGLHLVKETLIHINKGEAVDRLRFPMSAAKFRENIVINKRKGAGFISTHQDRDGIVEIHLHQDGGSSGQPQKFPARNAPKTVVSNTNSGVWPTILAARREMQSWRFLSLEPSAMRRSNKIHEEGAVSSGGGRLGAALYKLHRKDPSVYTRVASRLSEIVPTSDIRVDVDQVRQLLTVEVKERSGAFLPARALSDGTLRFLALSIIAEDPDFNGVLCFEEPENGIHPARVGAMLALLKELSVDPHDEVSESNSMRQIVVATHSPVLVSLEEPNDLIFADVVKVKGPNGMPATTIRCKCLRESWRFSDEEGNGIDRASIISYLELPPDRQISLNLKTTGVAINLEATV, MGSDKIHHHHHHMLTTLAIFNYRSLREIVLPLGQLNLITGANGSGKSNLYKALRLLAQTAQGGVVNALAQEGGLDSSFWAGPENFTKSMLAGDTAIEATVRQAPKRLKLGFAGEDFSYLIELGLPEPDATTLFGLDPQIKREAIWNGPKYRPSTVLVERRGPMVKSRSADGKGWIILGAHLQTGDSLFTELADPERCPEVLKLRDSIRAWRFYDHFRTDAEAPARRPQLGTATPVLHHDGRDLASAIQTIFEIGDKSAFDHAVSDAFPGAKVRIEPQAGGILVLAFHQHGLLRPLNASELSDGTLRYLLLIAALLTPRPPELMVLNEPETSLHPDLLPALARLIAKVSEECQLWVVSHANRLINALSQFEHCNTLALDKTLGQTQIQGQDLLNTPSWLWQNR, MGSDKIHHHHHHMLVLNNLQKKFTNSKMVLNNVNAKFRSGSINCIVGVNGAGKTTLLNIISSILMPTKGDVYLNSESIFENSTLKKEIFYTPVNPFFYENLSAKDNLYLICSLYNRKIDQITIEKTIKDVGLNIEDLNIPVYNFSSGMKQKLNFASMLLVDSNVLLLDEPFNALDHVAQKNFTRILKGLVSKEKIIIFTSHLPNTILELSENIYLLKDGCFTDKRKAQSFNQTTLETWLLESQKEVIPYEEK, MGSDKIHHHHHHMMAEALQRENPSGFEGSVAGLPLTDVIQLKGQNRFSGCIAVEYRERQGMIFFRDGDIIHAEQGKLMGEMALYEIIRWPGGRFNIQPKVTTTSRTIQQSISFLLLEAHRLMDEEQAAVRADEGTRREEAAAPAAVQNRMSAVAERIVRIAGVSYAVLMKKDGTPLEDDSFEAEVLSAKGMSLAGIGSRLGELFGLDEVKSAAVHARGKQILLFEAKNHYVSIAVRGDSSLAHVENEIRSTFAGRK, MGSDKIHHHHHHMMELRYNPLTDEWVIVSAATQKRPVQPSKTECPICVGGLELPEEYDLVTFENRYPSLKKDPPPVNWKEKGPFRKEESRGVCEVVVYTSDHNTALPGMPLKQIEKLVEMWVDRTRDLSQHDFVKYIFIFENRGKEVGASLPHPHGQIYAFPFLPKRIEVKIGAMRKWYEEKRKCPICEVLESEGEERKVYETEHFLALVPFYARFPYEVHIYPKRHVSTLLEFSKEEKKEFAKVLKVVTAKYDKLFDQEFPYMMMFFQAPFNEEDVSHFFHFHVEFNPPKRDRDKLKWMASVETGTWAFINPVVPEEAARQLRETEVEI, MGSDKIHHHHHHMMENFPKPVVVVSKCLGFDSCRYNGDIIDAPFVDKLRSHVTFVPVCPEVEIGLGVPRKPIRIVSDKGITTLYQPATGKDFTGTMRSFVDDFLGSLTEVDGFLLKNRSPSCGVGDVKIHAGFDEGARMFRGSGFLGGAVLERFAGLPVEDEGRIRNFTIREHFLTRLFLFARFREVKKSGSMRGLVDFHSLQKLLLMGYNQAQMRLLGKIVANHEKADWNTMITRYEEQLKRALANPPRFTAMINVLLHAFGGFSNVLAKEEKAFFLDLIEEYRDERIPLSALLQVLRGWSIRFRNDYLLGQTFLQPYPGQLSKITDSGKGREP, MGSDKIHHHHHHMMKALILAGGSGERFWPLSTPETPKQFLKLFGNKSLMRWTFERVLEEMDPKDVIVVTHKDYVERTKKELPELPDENIIAEPMKKNTAPACFIGTKLADDDEPVLVLPADHRIPDTKKFWKTVKKALDALEKYDGLFTFGIVPTRPETGYGYIEIGEELEEGVHKVAQFREKPDLETAKKFVESGRFLWNSGMFLWKAREFIEEVKVCEPSIYENLKDVDPRNFEELKKAYEKVPSISVDYAVMEKSKKVRVVKADFEWSDVGNWSSVREIEGYTEESDEVILVDSDRVFVKTHNKPIAVVGLSDVIVIDTPNGILICKEEYAQKVREVVKKLFRTS, MGSDKIHHHHHHMMKSRDKKDLILESIIQTYLLDNAPIGSNELNSNLCIPASTIRVYLKRLSDEGLITQLHISSGRIPTILTMQNYWQNFWEKEQDKNIHIKNESFLKELSKEFEIYCLVYGGRSLVLKEVLDLNTKFIVLDFEDEELVLKYEKEAWNFLQSLIGLDLSSIEKIALRVHFIDLVEKIASLRQNLICYRSNEERAYQIYQNDEFVKLLDCQIHRHFKESLEFEPLFKEGFMGLKVDAQFLGEDVNIILAGSVYTDYKKILQYIKEAA, MGSDKIHHHHHHMMKTVNELIKDINSLTSHLHEKDFLLTWEQTPDELKQVLDVAAALKALRAENISTKVFNSGLGISVFRDNSTRTRFSYASALNLLGLAQQDLDEGKSQIAHGETVRETANMISFCADAIGIRDDMYLGAGNAYMREVGAALDDGYKQGVLPQRPALVNLQCDIDHPTQSMADLAWLREHFGSLENLKGKKIAMTWAYSPSYGKPLSVPQGIIGLMTRFGMDVTLAHPEGYDLIPDVVEVAKNNAKASGGSFRQVTSMEEAFKDADIVYPKSWAPYKVMEERTELLRANDHEGLKALEKQCLAQNAQHKDWHCTEEMMELTRDGEALYMHCLPADISGVSCKEGEVTEGVFEKYRIATYKEASWKPYIIAAMILSRKYAKPGALLEQLLKEAQERVK, MGSDKIHHHHHHMMNSFYNGISGVKSNSFGIDITANNIANVNTTGFKYSDAQFKDIFYTTITTQSTNPAQGGYGSGAASSQVVFEQGSPVASDGEFDVALQGKGFFGVLGADGNAYYTRNGSFRRDANGYLVDSYGNFVLGTMNPAFTGINYSDRVAGLMGDYLNTGTPVNNGFTVNSNNSFSIGTTASQGAIKVPVNMYLPPQVTQNVKWSGSLNTNTTTEVVKVDLDPSKFNITKTEDGKYVVSGSVSKEDVFSAKAGDRIILNFTDDNGVKTSFEATLDENLNFKSNELDLKGLDENSIKLDTAQISTEQQKANKDILESPIYNADGSKSTLRVTLERVLPQEGDNIQYKAIAQIYDSNGNAVGNPTEGNMVFDKNGALLQNNITSIANPNGGTINIDLGSPYDANKPGSGYSGIYIKQGVEKNVVTQQDGVAEGFFEQYNISDDGSIVAQFSNGKNAIVGKLALYNFINEQGLVAMGDNIFAATANSGDASFIMKDGQVVNTAKFKGGFLEQSNVDLSAELSNLIVTQKAFDASSKSITTSDQMIQKAINMKR, MGSDKIHHHHHHMMSLSSAETIRASLHNALGKIESFKSCALLDYPDHPNIGDHLIWLGGVIYLTNVMKTQIKYTCSLHNFSPKTLEDNIGKSPIVFHGGGNLGDLWTEQQKFREGIISKYRDRPIVILPQSLYFRHEVNLIKTANIFNSHPNLTIFLRDERSYKIAREAFDKCQVFKAPDMAFQMTDLQDIFHIQNNKSSILYLSRKDREINQKQSENIFDLPNLVVEDWIAYEWKFGHPTKKLAKYVSTLYREVWQRGLATPIEWNSRQKWQNSYPYEVEFNHVYQPSIHQLSWSLMHSGVYQLKQHRLVITNRLHGHIICVLFNIPHVFLPNSYYKNEAFYEEWTKEIPDCRFIKDTSEVKIAVEELLASSTGKAIN, MGSDKIHHHHHHMMSVQTTKLDAVPLGDRAPILEMRGISQIFPGVKALDGVNIALYPGEVTALIGENGAGKSTLVKILTGIYRPNEGEIVIDGSPVTFADAQAAIDAGVTAIHQETVLFDELSVAENIFLGHAPKTRFGFIDWNGINTKARALMDRLESKIDPTIRLKDLSIAQRHLVAIARALSVEARIVIMDEPTAALSRKEIDDLFRIVEGLKRDGKAILFISHKFDEVYEIAENYAVFRDGKMVGAGRLQSTPQDEIVRLMVGRDVHDAFPKIDVSIGAAVLSVSRYCHDTEFRDISFDLRKGEILGFYGLIGAGRSELCQSLFGITHPASGTVTLEGRALDIRSPADAIAAGIVYVPEERGRHGLALQMPIYQNMSLPSLARVSARGFLKVVNELALARHYAERLDLRAAALSVPVGTLSGGNQQKVVIGKWLATKPKVIILDEPTKGIDIGSKAAVHGFISELAAEGLSIIMISSELPEILGMSDRVMVMREGLQAGIFEREALTPEVLVRAATGNA, MGSDKIHHHHHHMMYQTYDLYSRSAEMMNGFISVNQQLLTHPFNPFSNTLLGKSINAALDSAYHHTKVYDKQPFDIKTTIIDGETVNIDEQVILAKPFCNLIHFKQDTKVQQPKLFLVAPLSGHHATLLKATIERLILDHDVYITDWLDAKNVPLSEGNFDFDDYVTYLIEFMKEIGEDTHVLAVCQPAVQALIATAVLAKDKDAATPKSLTIIAGPIDTSINPNELNKYASSKDLSWFENNVIMTVPERFPGAGRKVYPGFIQLTSFMAMNIENHVKKHTDYFGHVFHGKEDKQESHRDFYDEYLAVLDLNSEFYLETLDRVFINQDLANGKMTYHGELVDLSAITDTALHTIEGKNDDICSLGQTQAAQALCSGIPEQNKLDQVFDGVGHFGTFSGSAFRERIAPSIAEFIQKHK, MGSDKIHHHHHHMNAEKSPENHNVDHEEIAKFEAVASRWWDLEGEFKPLHRINPLRLGYIAERAGGLFGKKVLDVGCGGGILAESMAREGATVTGLDMGFEPLQVAKLHALESGIQVDYVQETVEEHAAKHAGQYDVVTCMEMLEHVPDPQSVVRACAQLVKPGGDVFFSTLNRNGKSWLMAVVGAEYILRMVPKGTHDVKKFIKPAELLGWVDQTSLKERHITGLHYNPITNSFKLGPGVDVNYMLHTQNK, MGSDKIHHHHHHMNAHTIPELRYAMSREAIIGHETAWKVSSFGVAQYLHGYDPALLAAIEEAALKLKDSHAVHKHLDLTFITGADRFIPEIKELLHDKLRLERLSDMMGTKLEPYPLSIVGSTVTFMNPRDGAVEWHCDGVPVTELIPLSISNPLVGGHLEIYCDDSETGRAILESGREIPRNRIMRIDHKMNYATLGQFLGVLHRTAPIQYGERVTLVLNQRSVAKPYVDDNRMFYLAADNDHDREWVNELAEDVWTNQLPAYRRFEAEHPTPAPASETQVSGGARGSW

From the DeepSol protein solubility set
